# B1: rOicPaF(p-Me) (D-Arg-Oic-Pro-D-Ala-Phe(p-Me)) (peptide)
# peptide: RXPAF
# HELM: PEPTIDE1{[dR].[O=C([C@@H]1C[C@@H]2CCCC[C@@H]2N1[*:1])[*:2]].P.[dA].[Cc1ccc(C[C@H](N[*:1])C(=O)[*:2])cc1].[am]}$$$$V2.0
# SMILES: Cc1ccc(C[C@H](NC(=O)[C@@H](C)NC(=O)[C@@H]2CCCN2C(=O)[C@@H]2C[C@@H]3CCCC[C@@H]3N2C(=O)[C@H](N)CCCNC(=N)N)C(N)=O)cc1
# notes: also called H-r-Oic-P-a-F(p-Me)-NH2
# B2: rOicPsF(p-Me) (D-Arg-Oic-Pro-D-Ser-Phe(p-Me)) (peptide)
# peptide: RXPSF
# HELM: PEPTIDE1{[dR].[O=C([C@@H]1C[C@@H]2CCCC[C@@H]2N1[*:1])[*:2]].P.[dS].[Cc1ccc(C[C@H](N[*:1])C(=O)[*:2])cc1].[am]}$$$$V2.0; N-terminus assumed
# SMILES: Cc1ccc(C[C@H](NC(=O)[C@@H](CO)NC(=O)[C@@H]2CCCN2C(=O)[C@@H]2C[C@@H]3CCCC[C@@H]3N2C(=O)[C@H](N)CCCNC(=N)N)C(N)=O)cc1
# B3: rOicPaF(p-Br) (D-Arg-Oic-Pro-D-Ala-Phe(p-Br)) (peptide)
# peptide: RXPAF
# HELM: PEPTIDE1{[dR].[O=C([C@@H]1C[C@@H]2CCCC[C@@H]2N1[*:1])[*:2]].P.[dA].[O=C([C@H](Cc1ccc(Br)cc1)N[*:1])[*:2]].[am]}$$$$V2.0; N-terminus assumed
# SMILES: C[C@@H](NC(=O)[C@@H]1CCCN1C(=O)[C@@H]1C[C@@H]2CCCC[C@@H]2N1C(=O)[C@H](N)CCCNC(=N)N)C(=O)N[C@@H](Cc1ccc(Br)cc1)C(N)=O
# B4: rOicPaF(p-I) (D-Arg-Oic-Pro-D-Ala-Phe(p-I)) (peptide)
# peptide: RXPAF
# HELM: PEPTIDE1{[dR].[O=C([C@@H]1C[C@@H]2CCCC[C@@H]2N1[*:1])[*:2]].P.[dA].[O=C([C@H](Cc1ccc(I)cc1)N[*:1])[*:2]].[am]}$$$$V2.0; N-terminus assumed
# SMILES: C[C@@H](NC(=O)[C@@H]1CCCN1C(=O)[C@@H]1C[C@@H]2CCCC[C@@H]2N1C(=O)[C@H](N)CCCNC(=N)N)C(=O)N[C@@H](Cc1ccc(I)cc1)C(N)=O
# Biological target: T1, human α-thrombin (human, UniProt P00734 328-622)
# Experiment: inhibition of α-thrombin hydrolysis of Sar-Pro-Arg-paranitroanilide; Ki from Ki,app by the procedure of Bieth
row,Binder,Ki [µM]
1,B1,6.6
2,B2,6.7
3,B3,7.3
4,B4,6.4

# Biological target: T1, human α-thrombin
# Experiment: cell-based or functional assay
Binder,peptide concentration giving significant prolongation (p<0.05) of the APTT of normal human plasma [µM],peptide concentration giving significant prolongation (p<0.05) of the PT of normal human plasma [µM],peptide concentration giving significant prolongation (p<0.05) of the TCT of normal human plasma [µM]
B1,1.56,1.56,0.78
B2,3.13,1.56,0.39
B3,12.5,6.25,0.78
B4,25,6.25,0.78
